To fix the notation:
B1: CCND1 (parent)
chain: PEAEENKQIIRKHAQTFVALCATD
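Also: lentivirally expressed fusions sorted by FACS into six bins by GFP to DsRed ratio, PSI derived from sequencing read proportions per bin multiplied by bin number.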

The variants in the data set derive from B1. Description: protein stability index of a GFP-peptide fusion (GPS, HEK-293T) (PSI 1-6); higher = more stable. Particulars: c terminus: a fixed tail appended.
In the case of PEAEENKQIIRKHAQHFVALCATD [T16H], the protein stability index was 4.35.

Turning to PEAEENKQTIRKHAQTFVALCATD [I9T], the protein stability index is 2.18.

As for PEAEENKQSIRKHAQTFVALCATD [I9S], the protein stability index worked out at 2.46.

As for PEAEENKQWIRKHAQTFVALCATD [I9W], the protein stability index is 2.73.

Regarding PEAEENKQRIRKHAQTFVALCATD [I9R], the protein stability index was found to be 2.17.

With PEAEENKQYIRKHAQTFVALCATD [I9Y], the protein stability index worked out at 2.71.

For the variant PEAEENKQVIRKHAQTFVALCATD [I9V], the protein stability index is 3.04.

As to PEAEENKQQIRKHAQTFVALCATD [I9Q], the protein stability index came out at 2.81.

Regarding PEAEENKQPIRKHAQTFVALCATD [I9P], the protein stability index came to 3.

As to PEAEENKQIIRKHAQTFVLLCATD [A19L], the protein stability index amounted to 2.59.

For the variant PEAEENKQIIRKHAQTFVKLCATD [A19K], the protein stability index is 3.54.

Take PEAEENKQIIRKHAQTFVDLCATD [A19D]: the protein stability index stood at 2.6.

Consider PEAEENKQIIRKHAQTFVCLCATD [A19C], for which the protein stability index amounted to 3.3.

PEAEENKQIIRKHAQTFVHLCATD [A19H]: the protein stability index worked out at 3.32.

As for PEAEENKQIIRKHAQTFVILCATD [A19I], the protein stability index came to 2.85.

Take PEAEENKQIIRKHAQTFVGLCATD [A19G]: the protein stability index came out at 2.91.

In the case of PEAEENKQIIRKHAQTFVFLCATD [A19F], the protein stability index came to 3.08.

Turning to PEAEENKQIIRKHAQTFVELCATD [A19E], the protein stability index came out at 2.49.

Consider PEAEENKQIVRKHAQTFVALCATD [I10V], for which the protein stability index was determined as 3.39.

Turning to PEAEENKQIERKHAQTFVALCATD [I10E], the protein stability index worked out at 3.64.

In the case of PEAEENKQIRRKHAQTFVALCATD [I10R], the protein stability index was determined as 3.19.

For PEAEENKQIPRKHAQTFVALCATD [I10P], the protein stability index stood at 3.14.

Take PEAEENKQITRKHAQTFVALCATD [I10T]: the protein stability index came to 3.04.

Regarding PEAEENKQISRKHAQTFVALCATD [I10S], the protein stability index amounted to 2.53.

Turning to PEAEENKQIGRKHAQTFVALCATD [I10G], the protein stability index was 2.53.

In the case of PEAEENKQINRKHAQTFVALCATD [I10N], the protein stability index is 3.04.

Consider PEAEENKQILRKHAQTFVALCATD [I10L], for which the protein stability index amounted to 3.48.

Regarding PEAEENKQIARKHAQTFVALCATD [I10A], the protein stability index was 2.79.

On to PEAEENKQICRKHAQTFVALCATD [I10C], for which the protein stability index is 3.13.

On to PEAEENKQIWRKHAQTFVALCATD [I10W], for which the protein stability index was found to be 3.22.

For PEAEENKQIMRKHAQTFVALCATD [I10M], the protein stability index was determined as 3.5.

PEAEENKQIKRKHAQTFVALCATD [I10K]: the protein stability index was 2.92.

For PEAEENKQIHRKHAQTFVALCATD [I10H], the protein stability index stood at 3.5.

For PEAEENKQIYRKHAQTFVALCATD [I10Y], the protein stability index came out at 2.29.

For PEAEENKQIDRKHAQTFVALCATD [I10D], the protein stability index was found to be 3.14.

PEAEENKQIFRKHAQTFVALCATD [I10F]: the protein stability index stood at 2.48.

Regarding PEAEENKQIQRKHAQTFVALCATD [I10Q], the protein stability index was found to be 2.81.

As for PEAEENKQIIRKHAQTWVALCATD [F17W], the protein stability index was 2.11.

As for PEAEENKQIIRKHAQTIVALCATD [F17I], the protein stability index is 4.84.

As for PEAEENKQIIRKHAQTDVALCATD [F17D], the protein stability index worked out at 5.61.

Regarding PEAEENKQIIRKHAQTYVALCATD [F17Y], the protein stability index was 3.27.

With PEAEENKQIIRKHAQTMVALCATD [F17M], the protein stability index was 5.03.

Take PEAEENKQIIRKHAQTRVALCATD [F17R]: the protein stability index was 4.54.

As to PEAEENKQIIRKHAQTVVALCATD [F17V], the protein stability index was 4.33.

Consider PEAEENKQIIRKHAQTTVALCATD [F17T], for which the protein stability index was determined as 5.23.

On to PEAEENKQIIRKHAQTCVALCATD [F17C], for which the protein stability index worked out at 4.84.

As for PEAEENKQIIRKHAQTQVALCATD [F17Q], the protein stability index turned out to be 4.99.

With PEAEENKQIIRKHAQTEVALCATD [F17E], the protein stability index came to 5.24.

For the variant PEAEENKQIIRKHAQTNVALCATD [F17N], the protein stability index turned out to be 5.41.

In the case of PEAEENKQIIRKHAQTGVALCATD [F17G], the protein stability index worked out at 5.43.

In the case of PEAEENKQIIRKHAQTSVALCATD [F17S], the protein stability index stood at 4.67.

Turning to PEAEENKQIIRKHAQTAVALCATD [F17A], the protein stability index was determined as 4.99.

For PEAEENKQIIRKHAQTKVALCATD [F17K], the protein stability index worked out at 5.34.

PEAEENKQIIRKHAQTPVALCATD [F17P]: the protein stability index was found to be 5.15.

Take PEAEENKQIIRKHAQTHVALCATD [F17H]: the protein stability index turned out to be 4.86.

Turning to PEAEENKQIIRKHAQTLVALCATD [F17L], the protein stability index is 4.47.

For PEAEENKQIIRKHADTFVALCATD [Q15D], the protein stability index is 3.66.

In the case of PEAEENKQIIRKHAFTFVALCATD [Q15F], the protein stability index stood at 2.07.

For the variant PEAEENKQIIRKHAWTFVALCATD [Q15W], the protein stability index stood at 2.16.

On to PEAEENKQIIRKHACTFVALCATD [Q15C], for which the protein stability index was found to be 2.84.

For the variant PEAEENKQIIRKHASTFVALCATD [Q15S], the protein stability index turned out to be 3.52.

PEAEENKQIIRKHAMTFVALCATD [Q15M]: the protein stability index is 2.59.

With PEAEENKQIIRKHAHTFVALCATD [Q15H], the protein stability index came to 2.97.

Take PEAEENKQIIRKHALTFVALCATD [Q15L]: the protein stability index amounted to 2.49.

Take PEAEENKQIIRKHAITFVALCATD [Q15I]: the protein stability index amounted to 2.33.

With PEAEENKQIIRKHARTFVALCATD [Q15R], the protein stability index came out at 2.32.

In the case of PEAEENKQIIRKHAGTFVALCATD [Q15G], the protein stability index was 3.11.

Consider PEAEENKQIIRKHAETFVALCATD [Q15E], for which the protein stability index was determined as 3.63.

Take PEAEENKQIIRKHATTFVALCATD [Q15T]: the protein stability index stood at 3.18.

On to PEAEENKQIIRKHANTFVALCATD [Q15N], for which the protein stability index was 3.41.

Consider PEAEENKQIIRKHAYTFVALCATD [Q15Y], for which the protein stability index was 2.01.

In the case of PEAEENKQIIRKHAATFVALCATD [Q15A], the protein stability index stood at 3.45.

PEAEENKQIIRKHAPTFVALCATD [Q15P]: the protein stability index was 3.48.

As for PEAEENKQIIRKHAKTFVALCATD [Q15K], the protein stability index stood at 2.04.

In the case of PEAEENKQIIRKHAVTFVALCATD [Q15V], the protein stability index is 2.84.

On to PEAEENKQIIQKHAQTFVALCATD [R11Q], for which the protein stability index worked out at 3.61.

PEAEENKQIIFKHAQTFVALCATD [R11F]: the protein stability index was 2.64.

In the case of PEAEENKQIIAKHAQTFVALCATD [R11A], the protein stability index amounted to 3.58.

Turning to PEAEENKQIISKHAQTFVALCATD [R11S], the protein stability index amounted to 2.62.

For PEAEENKQIIEKHAQTFVALCATD [R11E], the protein stability index came to 3.76.

With PEAEENKQIIPKHAQTFVALCATD [R11P], the protein stability index stood at 3.28.

For the variant PEAEENKQIILKHAQTFVALCATD [R11L], the protein stability index was 3.25.

As to PEAEENKQIICKHAQTFVALCATD [R11C], the protein stability index came out at 2.94.

With PEAEENKQIIGKHAQTFVALCATD [R11G], the protein stability index amounted to 3.16.

As to PEAEENKQIIDKHAQTFVALCATD [R11D], the protein stability index was found to be 4.11.

With PEAEENKQIIKKHAQTFVALCATD [R11K], the protein stability index turned out to be 2.9.

PEAEENKQIIVKHAQTFVALCATD [R11V]: the protein stability index came to 3.14.

On to PEAEENKQIINKHAQTFVALCATD [R11N], for which the protein stability index came out at 3.59.

On to PEAEENKQIITKHAQTFVALCATD [R11T], for which the protein stability index was 3.47.

PEAEENKQIIWKHAQTFVALCATD [R11W]: the protein stability index worked out at 2.6.

As to PEAEENKQIIYKHAQTFVALCATD [R11Y], the protein stability index came out at 2.88.

On to PEAEENKQIIMKHAQTFVALCATD [R11M], for which the protein stability index is 2.71.

On to PEAEENKQIIIKHAQTFVALCATD [R11I], for which the protein stability index stood at 2.84.

As to PEAEENKQIIHKHAQTFVALCATD [R11H], the protein stability index was determined as 3.33.

The values are drawn from the supplement of paper PMC10567573.
